Key:
[1] = molecular target: Recombinant, his tagged full length human frataxin protein (Abcam ab95502) (human) (UniProt Q16595); assay: Simoa sandwich 3-step; capture Ab-4
[2] = molecular target: Recombinant, his tagged full length human frataxin protein (Abcam ab95502) (human) (UniProt Q16595); assay: Simoa sandwich 3-step; capture Ab-3
[3] = molecular target: Recombinant, his tagged full length human frataxin protein (Abcam ab95502) (human) (UniProt Q16595); assay: Simoa sandwich 2-step; capture Ab-1
[4] = molecular target: Recombinant, his tagged full length human frataxin protein (Abcam ab95502) (human) (UniProt Q16595); assay: Simoa sandwich 2-step; capture Ab-1; 50 pM SβG
[5] = molecular target: Recombinant, his tagged full length human frataxin protein (Abcam ab95502) (human) (UniProt Q16595); assay: Simoa sandwich 2-step; capture Ab-1; 150 pM SβG
[6] = molecular target: Recombinant, his tagged full length human frataxin protein (Abcam ab95502) (human) (UniProt Q16595); assay: Simoa sandwich 3-step; capture Ab-4; frataxin 100 pg/mL
[7] = molecular target: Recombinant, his tagged full length human frataxin protein (Abcam ab95502) (human) (UniProt Q16595); assay: Simoa sandwich 2-step; capture Ab-2; frataxin 100 pg/mL
[8] = molecular target: Recombinant, his tagged full length human frataxin protein (Abcam ab95502) (human) (UniProt Q16595); assay: Simoa sandwich 3-step; capture Ab-4; frataxin 1000 pg/mL
[9] = molecular target: Recombinant, his tagged full length human frataxin protein (Abcam ab95502) (human) (UniProt Q16595); assay: Simoa sandwich 3-step; capture Ab-3; frataxin 1000 pg/mL
[10] = molecular target: Recombinant, his tagged full length human frataxin protein (Abcam ab95502) (human) (UniProt Q16595); assay: Simoa sandwich 2-step; capture Ab-1; frataxin 1000 pg/mL
[11] = molecular target: Recombinant, his tagged full length human frataxin protein (Abcam ab95502) (human) (UniProt Q16595); assay: Simoa sandwich 2-step; capture Ab-2; frataxin 18.5 pg/mL
[12] = molecular target: Recombinant, his tagged full length human frataxin protein (Abcam ab95502) (human) (UniProt Q16595); assay: Simoa sandwich; capture Ab-1; no helper beads; frataxin 0.686 pg/mL
[13] = molecular target: Recombinant, his tagged full length human frataxin protein (Abcam ab95502) (human) (UniProt Q16595); assay: Simoa sandwich 2-step (120 min-5 min); capture Ab-1; Diluent 1 + 5% NCS
[14] = molecular target: Recombinant, his tagged full length human frataxin protein (Abcam ab95502) (human) (UniProt Q16595); assay: Simoa sandwich 2-step (120 min-5 min); capture Ab-1; frataxin 222 pg/mL
[15] = molecular target: Recombinant, his tagged full length human frataxin protein (Abcam ab95502) (human) (UniProt Q16595); assay: Simoa sandwich 2-step (120 min-5 min); capture Ab-1; Diluent 1 + 10% NCS
[16] = molecular target: Recombinant, his tagged full length human frataxin protein (Abcam ab95502) (human) (UniProt Q16595); assay: Simoa sandwich 2-step (120 min-5 min); capture Ab-1; frataxin 24.7 pg/mL
[17] = molecular target: Recombinant, his tagged full length human frataxin protein (Abcam ab95502) (human) (UniProt Q16595); assay: Simoa sandwich 2-step (35 min-5 min); capture Ab-1; with helper beads; frataxin 167 pg/mL
[18] = molecular target: Recombinant, his tagged full length human frataxin protein (Abcam ab95502) (human) (UniProt Q16595); assay: Simoa sandwich 2-step (35 min-5 min); capture Ab-1; with helper beads; frataxin 55.6 pg/mL
[19] = molecular target: Recombinant, his tagged full length human frataxin protein (Abcam ab95502) (human) (UniProt Q16595); assay: Simoa sandwich 2-step (120 min-5 min); capture Ab-1; Diluent 1 + 10% NCS; frataxin 200 pg/mL
[20] = molecular target: Recombinant, his tagged full length human frataxin protein (Abcam ab95502) (human) (UniProt Q16595); assay: Simoa sandwich 2-step (120 min-5 min); capture Ab-1; Diluent 1 + 5% NCS; frataxin 1.37 pg/mL
[21] = molecular target: Recombinant, his tagged full length human frataxin protein (Abcam ab95502) (human) (UniProt Q16595); assay: Simoa sandwich 2-step (120 min-5 min); capture Ab-1; Diluent 1 + 5% NCS; frataxin 1000 pg/mL
[22] = molecular target: Recombinant, his tagged full length human frataxin protein (Abcam ab95502) (human) (UniProt Q16595); assay: Simoa sandwich 2-step (120 min-5 min); capture Ab-1; Diluent 1 + 5% NCS; frataxin 37.0 pg/mL
[23] = molecular target: Recombinant, his tagged full length human frataxin protein (Abcam ab95502) (human) (UniProt Q16595); assay: Simoa sandwich 2-step (120 min-5 min); capture Ab-1; Diluent 1 + 5% NCS; frataxin 4.12 pg/mL
[24] = molecular target: Recombinant, his tagged full length human frataxin protein (Abcam ab95502) (human) (UniProt Q16595); assay: Simoa sandwich 2-step (120 min-5 min); capture Ab-1; Diluent 1 + 10% NCS; frataxin 1.37 pg/mL
[25] = molecular target: Recombinant, his tagged full length human frataxin protein (Abcam ab95502) (human) (UniProt Q16595); assay: Simoa sandwich 2-step (120 min-5 min); capture Ab-1; Diluent 1 + 10% NCS; frataxin 37.0 pg/mL

Chain of UniProt Q16595 (Q16595 42-210): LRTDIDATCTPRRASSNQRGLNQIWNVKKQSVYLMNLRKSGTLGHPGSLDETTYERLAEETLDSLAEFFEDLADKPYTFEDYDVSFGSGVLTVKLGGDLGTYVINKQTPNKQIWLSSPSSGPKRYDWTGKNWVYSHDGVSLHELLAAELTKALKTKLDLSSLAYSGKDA

Ab-3, mouse monoclonal [18A5DB1] to Frataxin (Abcam ab110328) (antibody)
LOD [1]: 1.3 pg/mL
LOD [2]: 11.9 pg/mL
LOD [3]: 0.27 pg/mL
LOD [4]: 0.132 pg/mL
LOD [5]: 0.272 pg/mL
Ave AEB [6]: 1.05 AEB
S/B [6]: 21.9
Ave AEB [7]: 7.14 AEB
S/B [7]: 88.6
Ave AEB [8]: 17.2 AEB
S/B [8]: 359
Ave AEB [9]: 0.0854 AEB
S/B [9]: 18.1
Ave AEB [10]: 30.7 AEB
S/B [10]: 384
Ave AEB [11]: 2.15 AEB
S/B [11]: 22.5
AEB Rep1 [12]: 0.0328 AEB
AEB Rep2 [12]: 0.028 AEB
Ave AEB [12]: 0.0304 AEB
S/B [12]: 1.34
LOD [13]: 0.419 pg/mL
AEB rep1 [14]: 1.01 AEB
AEB rep2 [14]: 1.08 AEB
AEB rep3 [14]: 1.04 AEB
Ave AEB [14]: 1.04 AEB
S/B [14]: 127
LOD [15]: 0.759 pg/mL
AEB rep1 [16]: 0.129 AEB
AEB rep2 [16]: 0.117 AEB
AEB rep3 [16]: 0.142 AEB
Ave AEB [16]: 0.129 AEB
S/B [16]: 15.7
AEB Rep1 [17]: 9.19 AEB
AEB Rep2 [17]: 9.19 AEB
Ave AEB [17]: 9.19 AEB
S/B [17]: 377
AEB Rep1 [18]: 3.47 AEB
AEB Rep2 [18]: 3.28 AEB
Ave AEB [18]: 3.38 AEB
S/B [18]: 139
Ave AEB [19]: 2.03 AEB
S/B [19]: 112
Ave AEB [20]: 0.02 AEB
S/B [20]: 1.82
Ave AEB [21]: 8.95 AEB
S/B [21]: 815
Ave AEB [22]: 0.341 AEB
S/B [22]: 31.1
Ave AEB [23]: 0.0434 AEB
S/B [23]: 3.95
Ave AEB [24]: 0.0153 AEB
S/B [24]: 1.42
Ave AEB [25]: 0.174 AEB
S/B [25]: 16.2

Source: patent publication US20220308072A1
